Results reported in patent publication US20160333101A1 (GENOR BIOPHARMA, published 2016).
Changes are numbered by the printed parent chain.

T1: recombinant human RANKL (human, UniProt O14788 136-317)
T1 sequence: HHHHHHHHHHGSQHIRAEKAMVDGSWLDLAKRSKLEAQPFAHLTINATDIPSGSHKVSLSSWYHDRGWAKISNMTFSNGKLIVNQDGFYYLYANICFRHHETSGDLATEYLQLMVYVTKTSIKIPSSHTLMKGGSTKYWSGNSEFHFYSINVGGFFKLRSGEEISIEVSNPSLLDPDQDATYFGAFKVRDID

B1: 114-6.6.29 (antibody, V domains shown)
VH: DVKLVESGGGLVKPGGSLKLSCAASGFTFSSYTMSWVRQTPEKRLEWVATISSGGSYTYYPDSVKGRFTISRDNAKNTLYLQMSSLKSEDTAMYYCTRDWDYYGTTYVGGYAMDYWGQGTSVTVSS
VL: DVLMTQTPLSLPVSLGDQASISCRSSQSIVHSNGNTYLEWYLQKPGQSPKLLIYKVSNRFSGVPDRFSGSGSGTDFTLKISRVEAEDLGVYYCFQGSHVPWTFGGGTKLEIK
B2: 114-2.222 (antibody, V domains shown)
VH: EVQLQQSGAELVKPGASVKLSCTTSGFNIKATYIHWVQQRPEQGLEWIGRIDPANGNTKYDSKFQGKATITADTSSNTAYLQLSSLTSEDTAVYFCARSLHYYVFFDYWGQGTTLTVSS
VL: DIQMTQTTSSLSASLGDRVTISCSASQGISNYLNWYQQKPDGTVKLLIYSTSSLHSGVPSRFSGSGSGTDYSLTISSLEPEDIATYYCQQYSKLPLTFGAGTKLELKR
B3: 114-2.402 (antibody, V domains shown)
VH: EVQLQQSGTELVKPGASVKLSCTLFGFNIKATYMHWVRQRPEQGLEWIGRIDPPNGNTKYDPKFQDKATIKVDTSSNTAYLQLSSLTSEDTAVYYCAREFNRYDVWLAYWGQGTLVTVSA
VL: B2 VL with I29V, S77N, I83V, L96F, A100S, L106I
B4: 114-5.9.4 (antibody, V domains shown)
VH: EVQLQQSGAELVKPGASVKLSCTASGFNLKGTYIHWVKQRPGQGLEWIGRIDPANANTKYDPKFQGKATIRTDTSSNTAYLQLSSLTSEDTAVYFCSSPSGHYDVWFAYWGQGTLVTVSP
VL: B2 VL with T7P, R18T, G28D, V44L, S50Y, S77N, Y91F
B5: 114-7.38.48 (antibody, V domains shown)
VH: DVQLQESGPDLVKPSQSLSLTCTVTGYSITSAYSWHWIRQFPGNKLEWMGYIHFSGVTNYNPSLKSRISITRDASKNQFFLQLSSVTTEDTATYYCATRRETGFTYWGQGTLVTVSA
VL: DIVLTQSPATLSVTPGDSVSLSCRASQSISKNLHWYQQKSHESPRLLIKYASQSISGIPSRFSGSGSGTDFTLSINSVETEDFGIYFCQQINSWPLTFGAGTKLELK
B6: 114-7.19.12 (antibody, V domains shown)
VH: QVQLQQSGAELASPGASVKLSCKASGYTFTTYWLQWVKQRPGQGLEWIGAIYPGPGNTKYTQKFKDKATLTADKSASTAYMQLNSLTSEDSAVYYCARRGSRRGIAYWGQGTLVTVSA
VL: NIVLTQSPASLAVSLGQRATISCRASESVDSYGRSFMHWYQQRPGQPPTLLIYLASNLESGVPVRFSGSGSRTDFTLTIDPVEADDAATYYCQQDNEDPYTFGGGTKLEIK
B7: 114-7.37.26 (antibody, V domains shown)
VH: B6 VH with A24T, N84S
VL: B6 VL with V64A
B8: 114-5.7.14 (antibody, V domains shown)
VH: EVQLQQSGAELVKPGASVKLSCTASGFKIKDTYMHWVRQRPEQGLEWIGRIDSANGNIKYDPKFQGKATITADTSSKTAYLHLSSLTFEDTAVYYCSRPKSNYDFWLPYWGQGTLVTVSA
VL: DIQMTQTTSSLSASLGDRVTISCSASQGISNYLNWYQQKPDGTVKLLIYYTSSLHSGVPSRFSGSGSGTDYSLTISNLEPEDIATYYCQQYSKLPLTFGAGTKLELK

Molecular target: T1, recombinant human RANKL
Experiment: cell-based or functional assay

Binder | EC50 value (ng/ml), inhibiting the cellular differentiation of RAW264.7 induced by human RANKL [ng/mL]
B1 | 799
B2 | 311
B3 | 396
B4 | 340
B5 | 585
B6 | 267
B7 | 470
B8 | 315
